Laboratory results from IntAct's records for PubMed 27309818.

B1: Izumo sperm-egg fusion protein 1 (Homo sapiens), Q8IYV9-1 (parent)
chain: MGPHFTLLCAALAGCLLPAEGCVICDPSVVLALKSLEKDYLPGHLDAKHHKAMMERVENAVKDFQELSLNEDAYMGVVDEATLQKGSWSLLKDLKRITDSDVKGDLFVKELFWMLHLQKETFATYVARFQKEAYCPNKCGVMLQTLIWCKNCKKEVHACRKSYDCGERNVEVPQMEDMILDCELNWHQASEGLTDYSFYRVWGNNTETLVSKGKEATLTKPMVGPEDAGSYRCELGSVNSSPATIINFHVTVLPKMIKEEKPSPNIVTPGEATTESSISLQPLQPEKMLASRLLGLLICGSLALITGLTFAIFRRRKVIDFIKSSLFGLGSGAAEQTQVPKEKATDSRQQ
B2: Sperm-egg fusion protein Juno (Homo sapiens), A6ND01-1 (parent)
chain: MACWWPLLLELWTVMPTWAGDELLNICMNAKHHKRVPSPEDKLYEECIPWKDNACCTLTTSWEAHLDVSPLYNFSLFHCGLLMPGCRKHFIQAICFYECSPNLGPWIQPVGSLGWEVAPSGQGERVVNVPLCQEDCEEWWEDCRMSYTCKSNWRGGWDWSQGKNRCPKGAQCLPFSHYFPTPADLCEKTWSNSFKASPERRNSGRCLQKWFEPAQGNPNVAVARLFASSAPSWELSYTIMVCSLFLPFLS

Variants of: B1
Settings: with IZUMO1R

Row | Variant | effect of a mutation on the interaction
1 | E71A | decreasing interaction strength
2 | E71K | decreasing interaction strength
3 | W148A | disrupting interaction strength
4 | R160E | decreasing interaction strength
5 | R160A | decreasing interaction strength
6 | H157A | decreasing interaction strength

Variants of: B2
Settings: with IZUMO1, Q8IYV9-1

Row | Variant | effect of a mutation on the interaction
7 | E45A | decreasing interaction strength
8 | E45K | decreasing interaction strength
9 | K163E | decreasing interaction strength
10 | K163A | decreasing interaction strength
11 | L81A | disrupting interaction strength
12 | W62A | decreasing interaction strength
